In PMC2323325, “Conserved Regulation of MAP Kinase Expression by PUF RNA-Binding Proteins”:

Tests used:
FBF-2 = target: T1, FBF-2 (Caenorhabditis elegans, UniProt Q09312 162-566); test: EMSA; Not stated; gel shift assays performed as described in ref 49; conditions: protein: recombinant
T1 sequence: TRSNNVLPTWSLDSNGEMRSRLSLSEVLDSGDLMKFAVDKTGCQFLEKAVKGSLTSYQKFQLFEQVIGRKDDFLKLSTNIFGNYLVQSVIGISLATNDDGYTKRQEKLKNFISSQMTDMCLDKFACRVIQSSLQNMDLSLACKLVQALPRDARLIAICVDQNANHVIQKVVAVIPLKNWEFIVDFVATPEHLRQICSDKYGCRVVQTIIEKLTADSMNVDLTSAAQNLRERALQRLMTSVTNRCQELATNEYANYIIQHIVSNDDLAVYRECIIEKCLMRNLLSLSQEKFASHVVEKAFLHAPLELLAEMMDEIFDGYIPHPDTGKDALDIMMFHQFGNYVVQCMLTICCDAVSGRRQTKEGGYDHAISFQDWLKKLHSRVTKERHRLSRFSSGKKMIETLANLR

PUM2 = PUM2 (Homo sapiens, UniProt Q8TB72 706-1048); test: as above; conditions: protein: recombinant
PUM2, sequence (Q8TB72 706-1048): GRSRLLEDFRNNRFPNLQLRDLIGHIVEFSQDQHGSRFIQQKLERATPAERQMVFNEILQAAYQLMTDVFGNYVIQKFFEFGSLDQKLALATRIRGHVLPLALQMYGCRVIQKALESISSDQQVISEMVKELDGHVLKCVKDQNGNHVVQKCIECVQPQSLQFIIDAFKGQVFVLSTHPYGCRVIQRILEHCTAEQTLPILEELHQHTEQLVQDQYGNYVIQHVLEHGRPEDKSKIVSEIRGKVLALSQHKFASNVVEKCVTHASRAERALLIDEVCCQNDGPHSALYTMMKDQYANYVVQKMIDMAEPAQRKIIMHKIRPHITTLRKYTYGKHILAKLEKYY

Question: Which Kd (FBF-2) does the source give for UAUUUUACGUAUUUUGUAAUAUAUUCAU (ssRNA) [mpk-1 FBEb] here?
Answer: ~0.32 µM

Question: Does AGGAGAGAAGAAAGUGUAGAUAGUUAAA (ssRNA) [p38alpha NREb] bind (PUM2)?
Answer: binds

Question: Does AGUAUAUUUGAAACUGUAAAUAUGUUUG (ssRNA) [p38alpha NREa] bind (PUM2)?
Answer: binds

Question: Does AGUUUCUUUUUCGAACAAUCAUAAUCCA (ssRNA) [mpk-1 FBEa*] bind (FBF-2)?
Answer: no binding

Question: AGUUUCUUUUUCGAUGUAUCAUAAUCCA (ssRNA) [mpk-1 FBEa] was tested. Which Kd (FBF-2) did it give?
Answer: ~0.093 µM

Question: Does UUCAUGAAAAUAAAUGUACAUCUUCUAU (ssRNA) [Erk2 NRE] bind (PUM2)?
Answer: binds

Question: Does UAUUUUACGUAUUUACAAAUAUAUUCAU (ssRNA) [mpk-1 FBEb*] bind (FBF-2)?
Answer: no binding
